Source: patent US20110117093A1 (published 2011)

Columns and labels:
[1] = molecular target: T1, biotinylated B Lymphocyte Stimulator (human, soluble form) (human, UniProt Q9Y275 134-285, NHS-biotin labelled at a molar ratio of 20:1 biotin:B Lymphocyte Stimulator); assay: purified scFv; inhibition of biotinylated BLyS binding to IM9 cells
T1 construct: also called bio-B Lymphocyte Stimulator

[2] = molecular target: T2, B Lymphocyte Stimulator, human, soluble form (human, UniProt Q9Y275 134-285); assay: phage ELISA
T2 construct: also called BLyS; immobilized B Lymphocyte Stimulator

[3] = molecular target: T3, membrane-bound B Lymphocyte Stimulator on P388 plasma membranes (mouse, UniProt Q9WU72 1-309); assay: phage competition ELISA
T3 construct: whole, on cells

[4] = molecular target: T4, biotinylated B Lymphocyte Stimulator (soluble form) (human, UniProt Q9Y275 134-285, biotinylated with NHS-biotin (20:1 biotin:protein)); assay: phage scFv, IM9 receptor binding inhibition
T4 construct: The biotinylation protocol covers human or mouse protein; also called bio-B Lymphocyte Stimulator; free B Lymphocyte Stimulator
Description: Plates were washed three times in PBST and three times in PBS, tapped dry and 50 μl of streptavidin-Delfia (Wallac) was added to each well at 1:1000 dilution in the Manufacturer's assay buffer. The plates were then incubated at room temperature for 1 hour and washed six times in Delfia wash solution (Wallac). After tapping the plates dry, 100 μl per well of Delfia enhancement solution (Wallac) was added. The plates were gently tapped to encourage micelle formation, incubated at room temperature for 10 minutes, and fluorescence read on a Wallac 1420 workstation at […].
All of the unique phage scFvs from panel 2 were assessed for their ability to inhibit B Lymphocyte Stimulator binding to its cognate receptor on IM9 cells. The biotinylation of B Lymphocyte Stimulator, maintenance of IM9 cells and receptor binding inhibition assay were performed as described in Example 3.

TNF-alpha = molecular target: T5, TNF-alpha (human, UniProt P01375 77-233); assay: phage ELISA
T5 construct: also called TNFα; Tumour Necrosis Factor-alpha
T5 sequence (P01375 77-233 limits assumed): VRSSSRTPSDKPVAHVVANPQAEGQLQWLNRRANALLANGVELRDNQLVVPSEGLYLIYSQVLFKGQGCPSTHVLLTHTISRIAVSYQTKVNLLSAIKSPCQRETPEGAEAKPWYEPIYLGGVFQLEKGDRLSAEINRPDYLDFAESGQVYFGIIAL

T3 sequence (Q9WU72 whole entry): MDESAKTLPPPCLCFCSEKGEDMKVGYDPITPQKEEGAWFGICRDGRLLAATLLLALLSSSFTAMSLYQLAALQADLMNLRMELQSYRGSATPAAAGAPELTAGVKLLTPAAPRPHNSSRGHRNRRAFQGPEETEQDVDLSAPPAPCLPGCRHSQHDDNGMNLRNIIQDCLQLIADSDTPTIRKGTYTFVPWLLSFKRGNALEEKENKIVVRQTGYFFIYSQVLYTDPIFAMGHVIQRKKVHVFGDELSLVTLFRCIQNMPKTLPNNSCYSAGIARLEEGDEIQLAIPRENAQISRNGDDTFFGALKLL

B1: I068C06 (scFv)
scFv: EVQLVQSGAEVKKPGSSVKVSCKASGGTVSSRTISWVRQAPGQGLEWMGGSLPPSGAPIYAQKFQGRVAITADALTNTAFMELRSLKSDDTAVYYCARDQGRYLDLWGKGTLVTVSSGGGGSGGGGSGGGGSAQAVLTQPSSVSGAPGQRVTISCTGSRSNIGAGYDVHWYQQLPGTAPKLLIYGNSNRPSGVPDRFSGSKSGTSASLAITGLQADDEADYYCQSYDTSLRGLFGTGTKVTVLG
notes: also called I0068C06; 0068C06
IC50 [1]: 62 nM

B2: I026C04-K (scFv)
scFv: QVQLVQSGAEVKKPGSSVKVSCRASGGSFNKHAISWVRQAPGRGLEWMGGILPMYGTANYAQKFQGRVTITADKLTNTVYMDLSRLRYEDTAVYYCARELGLSIVGATTGALDMWGKGTLVTVSSGGGGSGGGGSGGGGSAQSVLTQPPSVSAAPGQKVTISCSGSSSNIGNNYVSWYQQIPGTAPKLLIYENNKRPSGIPDRFSGSKSGASATLDITGLQTGDEADYYCGTWHSSQVVFGGGTKLTVLG
binding result [2]: binds

B3: I079B04 (scFv)
scFv: EVQLVESGGGLVQPGGSLRLSCAASGFTFSDYAMSWVRQAPGKGLEWVSAISGSGGSTSYADSVKGRFTISRDNSKNTLYLQMNSLRAEDTAVYYCASLLSDYWGRGTTVTVSSGGGGSGGGGSGGGGSQSVLTQPASVSGSPGQSITISCTGTSSDVGGYNYVSWYQQHPGKAPKLMIYEGSKRPSGVSYRFSGSKSGNTASLTISGLQAEDEADYYCSSYTTRSTRVFGGGTKLTVLG
binding result [3]: binds

B4: I079F08 (scFv)
scFv: QMQLVQSGGGVVQPGRSLRLSCAASGFTFSSYGMHWVRQAPGKGLEWVAVISYDGSIKYYADSVKGRFTISRDNSKNTLYLQMNSLRAEDTAVYYCARYYYHSSGSDAFDIWGQGTLVTVPSGGGGSGGGGSGGGGSQSVLTQPPSASGTPGQRVTISCSGSSSNIGSNTVNWYQRLPGAAPQLLIYNNNQRPSGVPDRFSGSKSGTSASLAISGLQSEDEADYYCAAWDDSLNGWVFGGGTKLTVLG
binding result [3]: binds

B5: I080B01 (scFv)
scFv: QVQLVQSGAEVKKPGASVKVSCKASGYTFTNYYMHWVRQAPGQGLEWMGIINPRDVSTTYAQKFQGRATMTRDTSTSTVYMELNSLRSEDTAVYYCAREYSGYHYVEGGSYAMDVWGQGTMVTVSSGGGGSGGGGSGGGGSALSYVLTQPPSASGTPGQRVTITCSGSSSNIGNYYVNWYQQVSGTAPKLIIYRNNQRPSGVPDRFSGSKSGASASLAISGLRSEDEADYFCAAWDDSLREFVFGTGTKVTVLG
binding result [3]: binds

B6: I026C04-K (scFv)
scFv: B2 scFv
binding result [4]: binds

B7: I018D07 (scFv)
scFv: GVQLVQSGPEVKKPGASVIVSCTASGYTFTSYGVSWVRQAPGQGLEWIGWISAHNGQTKYAEKFQGRVTMTRNTSISTAYMELSSLRSEDTAVYYCARDGSYDILTGYYIDNYMDVWGKGTMVTVSSGGGGSGGGGSGGGGSSELTQDPAVSVALGQTVRITCQGDSLRSYYTNWFQQKPGQAPLLVVYAKNKRPSGIPDRFSGSSSGNTASLTITGAQAEDEADYYCHSRDSSGNHVLFGGGTKLTVLG
binding result (TNF-alpha): no binding
